From the nanobody polyreactivity screen of Harvey et al. (2022)

Test: yeast display, Sf9 membrane polyspecificity reagent, FACS + sequencing; frameworks hold sequencing errors
Procedure, shortened: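 Polyreactivity labels are assigned by the sorting gate from which each nanobody was recovered. The gates were low and high (top ~1%), set on anti-HA fluorescence for expression and streptavidin fluorescence for reagent binding. Before sorting, galactose-induced (36–48 hours) yeast display cells were stained for 1 hour at 4 °C with 10% biotinylated, detergent-solubilized Sf9 membrane reagent.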

| Sequence | polyreactivity (PSR sort gate) |
| --- | --- |
| QVQLVESGGGLVQAGGSLRLSCAASGLTFERYAMGWNREAPGKERELVAAISGSGGSTYYADSVKGRFTISRDNAKNTVYLQMNSLTPEDTAVYYCAAYPTVWYDYWGQGTQVTVSS | high polyreactivity |
| QVQLVESGGGLVQAGGSLRLSCAASGITFYAYAIGWYRQAPGKERELVAAITSSGGNTYYADSVKGRFTISRDNAKNTVYLQMKSLKPEDTAVYYCNIRRYWWWQMGYWGQGTQVTVSS | high polyreactivity |
| QVQLVESGGGLVQAGGSLRLSCAASGSTFRPYAMGWYRQAPGKERELVAAITSTGGSTYYADSVKGRFTISRDNAKNTVYLQMNSLKPEDTAVYYCAAPLVRYAGPYDYWGQGTQVTVSS | low polyreactivity |
| QVQLVESGRGLVQARGSLRLSCAASGFIFYRYAMGWYRQAPGKEREFVAANTSTGTTYYADSVKGRFTISRDNAKNTVYLQMNSLKPEDTAVYYCNAGFRYKYQSSRVDYWGQGTQVTVSS | high polyreactivity |
| QVQLVESGGGLVQAGGSLRLSCAASGSIFRLNTKGGYRQAPGKERELVAAISNGGRTYYADSVTGRFTISRDNAKNTVYLQMNSLKPEDTAVYYCNVRYGRSKIYGYWGQGTQVTVSS | high polyreactivity |
| QVQLVESGGGLVQAGGSLRLSCAASGFTFGYNAMGRYRQAPGKERELVAAITSGGSTNYADSVKGRFTISRDNAKNTVYLQMNSLKPEDNAVYYCATGVRPWRKKPVEFYHWGQGTQVTVSS | low polyreactivity |
| QVQLVESGGGIVQAGVSLRLSCAASGINIDYYAMGWYRQAPGKERELVAAITSGGSTSYADSVKGRFTISRDNAKNTVYLQMNSLKAEDTAVYYCNTEPSGYESGYWGQGTQVTVSS | low polyreactivity |
| QVQLQESGGGLVQAGGSLRPSCAASGSISDGVPMGCYRQAPGEERELVATTVLGATTNYADSVKGRFTISRGNAKNTVYLQMNSLKPEETAVYYCAAPLRYDKGFSYWGQGTQVTVSS | low polyreactivity |
| QVQLVESGGGLDQAGGSLRLSCAASGITFGFNAMGWYRQAPGIERELVAAITYRGGSTYYADSVKGRFTISGDNAKNTVYLQMNSLKPEDTAVYYCAADIGRHTDNYDPRYDYWGQGTQVTVSS | low polyreactivity |
| QVQLVESGVGLVQAGGSVRLSCAASGFTFGYYAMGWYRQAPGKERELVASISSVDNTYYADSVKGRFTISRDNAKNTVYLQMNSLKPEDTAVYYCAARYRDYFVRGGYWGQGTQVTVSS | high polyreactivity |
| QVQLVESGGGLVQAGGSLRLSCAASGRIFAKNTMGWYRQAPGKERELVAAITWSSGNTDYADSVKGRFTISRDNAKNTVYLQMNSLKPEDTAVYYCNARFYYRPLRFSYDYWGQGTQVTVSS | high polyreactivity |
| QVQLVESGGGLVQAGGSLRLSCAASGFIFGYYAMGWYRQAPGKERELVAAISSRGGSTYYADSVKGRFTISRDNAKNTVYLQMNSLKPEDTAVYYCAVRRVSFRHKFGQYDYWGQGTQVTVSA | high polyreactivity |
| QVQLVESGGGLVQAGGSLRLSCAASGFIFYRNTMGWYRQAPGKEREFFAAITRSGGITRYADSVKGRFTISRDNAKNTVYLQMNSLKPEDTAVYYCAARRWIADPGRIMDYWGQGTQVTVSS | high polyreactivity |
| QVQLVESGGGLVQAGGSLRLSCAASGFTLEFYAMGWYRQAPGKERELVARITTSGGSTRYADSVKGRFTISRDNAKNTVYLQMNSLKPEDTAVYYCPARGYGYRNVQTYGYWGQGTQVTVSS | high polyreactivity |
| QLQLVESGGGLVQAGGSLRLSCAASGSTFHLYAMGCYREAPWNEREFVAAIRGRGGNTYADSVKGRFTISRDNAKNTVYLPMNSLKPEDTAVYYCAAAFYYYGDSDNWGQGTQVTVSS | low polyreactivity |
| QDQLVESGGGLVQAGGSHRLSCAASGRIFARNAMGWYRQAPGKERELVATIRVGGGSTYYADSVKGRFTISRDNAKNTVYLQLNSLKPEDTAVYDCAVRQLYSYPGDRRGYYWGQGTQVTVSS | low polyreactivity |
| QVQLVESGGGLVQAGGSLRLSCAASGFIFGNNDMGWYRPAPGKERELVAAISNSGGRTYYADSVKGRFTISRDNAKNTVYLQMNSLKPEDTAVYYCAKAYRPPGYDSWGQGTQVTVSS | high polyreactivity |
| QVQLVESGGGLVQAGGSLRLSCAASGRIYRGNTKGWYRQAPGKERELVAAITRGGSTSYADSVKGRFTISRDNAKNTVYLQMMSLKPEDTAVYYCATRTHGEGTRRDSWGQGTQVTVSS | low polyreactivity |
| QVQLVESGGGLVQAGGSLRFSCAASGFTFYEYAMGWYRQAPGKERELVAAINWNGGRTYYADSVKGRFTISRDNAKNTVYLQMNSLKPEDTAVYYCAARVAPKTKISRRYYWGQGTQVNVSS | high polyreactivity |
| QVQLVESGGGLVQAGGSLRLSCAASGSTFYGNMGWYRQAPGKERELVAAITYRGTNTYYADSVKGRFTISRDNAKNTVYLQMNSLKPEDTAVYYCAAEYDVYQGRGRYYGYDYWGQGTQVTVSS | high polyreactivity |
| QLQLVESGGGLVQAGGSLRLSCAASGYIFEFYAMGWYSQARGKERELVDAIRWNGGTYYADSVKGRFTISRDNAKNTVYLQMNSLKPEDTAVYDCSASRYYRYKIGYVSRAMDYWGQGTQVTVSS | high polyreactivity |
| QVQLVESGGGLVQAGGSLRLSCADSGSTFLYYGMGWYRQAPGKERELVAGIDGTGSSTYYADSVKGRFTISRDNAKNTVYLQMNSLKPEDTAVYYCAKRYPRYRSRYYYWGQGTQVTVSS | low polyreactivity |

| Sequence | polyreactivity (PSR sort gate) |
| --- | --- |
| QVQLVESGGGLVQAGGSLRLSCAASGRIFLRNAMGWYRQAPGKERELVANITSRGGSTYYADSVKGRFTISRDNAKNTVYLQMNSLKPEDTAVYYCAADPRRYRGFGYVYGGFYYWGQGTQVTVSS | low polyreactivity |
| QVQLVESGGGLVQAGGSLRLSCAASGSIFVVYAMGWYRQAPGKERELVASIRTGGSTNYADSVKGRFTISRDNAKNTVYLQMNSLKPEDTAVYYCAAASWNSNSHYYVARYYYWGHGTQVTVSS | high polyreactivity |
| QVQLVESGGGLVQAGGSLRLSCAASGIIFDINAMGWYRQAPGKERELVAAITTSVDSTYYADSVKGRFTISRDNAKNTVYLQMNSLKPEDTAVYYCAVAFVQFTQYYYWGQGSQVTVSS | low polyreactivity |
| QVQLVESGGGLVQAGGSLRLSCAASGSIFHVYAMGWYRQAPGKERELVAAIDRSGGSTYYADSVKGRFTISRDNAKNTVYLQMNSLKPEDTAVYYCAKDVLGGQITDGVGNDYWGQGTQVTVSS | low polyreactivity |
| QVQLVESGGGLVQAGGSLRLSCAASGRTFRPYAMGWYRQAPGKEREFVARITWSGGTTYYADSVKGRFTISRDNAKNTVYLQMNRLKPEDTAVYYCAARVSRQTPVISYNYWGQGTQVTVSS | low polyreactivity |
| QVQLVETGGGLVQAGGSLRLSCAPSGRIFGIYAMGWYRQAPGKERELVASITDGTITNYADSVKGRFTISRDNAKNTVYLQMNSLKPVDTAVYYFAAGTQAHAYVVRPIEMDYWGQGTQVTVSS | low polyreactivity |
| QVQLVESGGGLVQAGGSLRLSCAASGIIFSHNVMGWYRQAPGKERELVAAITYSGGSTYYADSVKGRFTISRDNAKNTVYLQMNSMKPEDTAVYYCNAVTYSSPYRFDYWGQGTQVTVSS | low polyreactivity |
| QVQLVESGGGLVQAGGSLRLSCAASGRTFPSYAMGWYRQAPGKERELVAAITTSGGSTYYADSVKGRFTISRDNAKNTVYLQMNSLKPEDTAVYYCAAAKPYSGSQYYYWGQGTQVTVSS | high polyreactivity |
| QVQLVESGGGLVQAGGSLRLSCAASGYTFGSNAMGWYRQAPGKERELVAAISTNGGRTNYADSVKGRFTISRDYAKNSVYLQMYSLIPEDTAVYYCNTRLRVRYYLSGFDYWGQGTQVTVSS | high polyreactivity |
| QVQLVESGGGLVQAGGSLRLSCAASGSIFSPYAMGWYRQAPGKERELVATITWSGGSTYYADSVKGRFTISRDNAKNTVYLQMNSLKPEDTAVYYCAATRSGYTSYTDDSWGQGTQVTVSS | high polyreactivity |
| QVQLVESGGGLVQAGGSLRLSCAASGRTFDVYAMGWYRQAPGKERELVAAISWSGGGTYYADSVKGRFTISRDNAKNTVYLQLTSLNPADTAVYSCAAALTFALDPNRYTYSDYYYWGQGTQVTVSS | low polyreactivity |
| QVQLVESGGGLVQEGGSLRLSCAASGFTFNNYAMGWYRQAPGKERELVAAISSVGRTYYAYSVKGRFTISRDNAKNTVYLQMISLKPEDTAVYYCNRRWYTHWGQGTQVTVSS | high polyreactivity |
| QVQLVESGGGLVQAGGSLRLSCAASGRTFRSYAMGWSRQAPGKGRELVAAISRSGGTTTYADSVKGRFTISRDNAKNTVYLQMNSLKPEDTAVYYCARGQNRYWQFHGAYDYWGQGTQVTVSS | high polyreactivity |
| QFQIVESGGGLVQAGGSLRLSCAASGYTFTGNAMGWYRQATGKEREFVAGITWRTGRTYYADSVKGRFTISRDNAKNSVYVLMNSLKPEDTAVYYCNKDHQRRYFWSYDYWGQGTLVTVSS | low polyreactivity |
| QVQLVESGGALVQAGGSLRLICAASGSIFGYNAMGWYRPSPGKEREFVASIRDRGGSTYYADSVKGRFTISRDNAKNTLYFQMKSLKQEDTAVYYGDAYWWGVSKRQYGYWGQGTQVTVSS | high polyreactivity |
| QVQLVESGGGLVQAGGSLRLSCAASGSTFYTNAMGWYRQAPGKDRELVAVITSRGGGTYYADSVKGRFTISRDYAKNTVYLQMNRLKPEDTSVYYCAAYPLVSWGRHGTKGDYWGQGTQVTVSS | low polyreactivity |
| QVQLVESGGGLVQAGGSIRLSCAASGYSFNGYAMGWYRQAPGKEREFVAAISWSGGSTYYADSVKGRFTISRDNAKNTVYLQMNSLKPEDTAVYYCAKRRGGGYDYWGQGTQVTVSS | low polyreactivity |
| QVQLVESGGGLVQAGGSLRLSCAASGRTFYSYTMGWYRQAPGKERELVAAINRGGSTYYADSVKGRFTISRDNAKNTVYLQMNSLYPVDNAVYYCAVGYAHSSNRRYYYKQTHGYWGQGTQVTVSS | low polyreactivity |
| QVQLVESWGGLVQAGGSLRLSCAASGGTFRKNTMGWYRQAPGKERELVAAITRRADRTYYADSVKGRFTISRDNAKHTVYLQMNSLKPEDTAVYYCNAPPPPTKVGGYDYWGQGTQVTVSS | high polyreactivity |
| QVQLVESGGGLVQAGGSLRLSCAASGFIFGKYAMGWYRQAPGKERELVAAITSDGRTYYADSVKGRFTISRDNAKNTVYLQMNSLKPEDTAVYYSAATRYGHRYYYRPYEYWGQGSQVTVSS | high polyreactivity |
| QVQLVESGGGLVQAGGSLRLSCAASGSTFTSYAMGWYIQAPGKERELVAAIRYRGDGTYYADSVKGRFTISRDNAKNTVYLQMNSLKPEDTAVYYCAADTTLQAFIRYRPIGSYDSWGQGTQVTVSS | low polyreactivity |
